Source: IntAct's records for PubMed 24725409

B1: Cadherin-related family member 2 (Homo sapiens), Q9BYE9 (parent)
chain: MAQLWLSCFLLPALVVSVAANVAPKFLANMTSVILPEDLPVGAQAFWLVAEDQDNDPLTYGMSGPNAYFFAVTPKTGEVKLASALDYETLYTFKVTISVSDPYIQVQREMLVIVEDRNDNAPVFQNTAFSTSINETLPVGSVVFSVLAVDKDMGSAGMVVYSIEKVIPSTGDSEHLFRILANGSIVLNGSLSYNNKSAFYQLELKACDLGGMYHNTFTIQCSLPVFLSISVVDQPDLDPQFVREFYSASVAEDAAKGTSVLTVEAVDGDKGINDPVIYSISYSTRPGWFDIGADGVIRVNGSLDREQLLEADEEVQLQVTATETHLNIYGQEAKVSIWVTVRVMDVNDHKPEFYNCSLPACTFTPEEAQVNFTGYVDEHASPRIPIDDLTMVVYDPDKGSNGTFLLSLGGPDAEAFSVSPERAVGSASVQVLVRVSALVDYERQTAMAVQVVATDSVSQNFSVAMVTIHLRDINDHRPTFPQSLYVLTVPEHSATGSVVTDSIHATDPDTGAWGQITYSLLPGNGADLFQVDPVSGTVTVRNGELLDRESQAVYYLTLQATDGGNLSSSTTLQIHLLDINDNAPVVSGSYNIFVQEEEGNVSVTIQAHDNDEPGTNNSRLLFNLLPGPYSHNFSLDPDTGLLRNLGPLDREAIDPALEGRIVLTVLVSDCGEPVLGTKVNVTITVEDINDNLPIFNQSSYNFTVKEEDPGVLVGVVKAWDADQTEANNRISFSLSGSGANYFMIRGLVLGAGWAEGYLRLPPDVSLDYETQPVFNLTVSAENPDPQGGETIVDVCVNVKDVNDNPPTLDVASLRGIRVAENGSQHGQVAVVVASDVDTSAQLEIQLVNILCTKAGVDVGSLCWGWFSVAANGSVYINQSKAIDYEACDLVTLVVRACDLATDPGFQAYSNNGSLLITIEDVNDNAPYFLPENKTFVIIPELVLPNREVASVRARDDDSGNNGVILFSILRVDFISKDGATIPFQGVFSIFTSSEADVFAGSIQPVTSLDSTLQGTYQVTVQARDRPSLGPFLEATTTLNLFTVDQSYRSRLQFSTPKEEVGANRQAINAALTQATRTTVYIVDIQDIDSAARARPHSYLDAYFVFPNGSALTLDELSVMIRNDQDSLTQLLQLGLVVLGSQESQESDLSKQLISVIIGLGVALLLVLVIMTMAFVCVRKSYNRKLQAMKAAKEARKTAAGVMPSAPAIPGTNMYNTERANPMLNLPNKDLGLEYLSPSNDLDSVSVNSLDDNSVDVDKNSQEIKEHRPPHTPPEPDPEPLSVVLLGRQAGASGQLEGPSYTNAGLDTTDL
partner: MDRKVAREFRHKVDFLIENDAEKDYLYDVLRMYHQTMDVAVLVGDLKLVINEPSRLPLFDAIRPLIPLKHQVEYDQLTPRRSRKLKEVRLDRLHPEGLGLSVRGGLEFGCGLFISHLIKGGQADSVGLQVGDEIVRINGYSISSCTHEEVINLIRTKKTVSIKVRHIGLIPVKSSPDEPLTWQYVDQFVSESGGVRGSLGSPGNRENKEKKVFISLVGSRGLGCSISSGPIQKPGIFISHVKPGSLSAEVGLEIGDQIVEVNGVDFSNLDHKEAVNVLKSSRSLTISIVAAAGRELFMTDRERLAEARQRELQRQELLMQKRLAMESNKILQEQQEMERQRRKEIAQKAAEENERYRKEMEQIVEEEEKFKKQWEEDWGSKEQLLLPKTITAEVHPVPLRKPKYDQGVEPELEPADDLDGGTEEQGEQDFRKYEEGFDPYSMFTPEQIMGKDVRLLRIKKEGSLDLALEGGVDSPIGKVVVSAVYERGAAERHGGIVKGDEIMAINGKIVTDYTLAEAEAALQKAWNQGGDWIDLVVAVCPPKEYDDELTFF
B2: Cadherin-related family member 5 (Homo sapiens), Q9HBB8 (parent)
chain: MGSWALLWPPLLFTGLLVRPPGTMAQAQYCSVNKDIFEVEENTNVTEPLVDIHVPEGQEVTLGALSTPFAFRIQGNQLFLNVTPDYEEKSLLEAQLLCQSGGTLVTQLRVFVSVLDVNDNAPEFPFKTKEIRVEEDTKVNSTVIPETQLQAEDRDKDDILFYTLQEMTAGASDYFSLVSVNRPALRLDRPLDFYERPNMTFWLLVRDTPGENVEPSHTATATLVLNVVPADLRPPWFLPCTFSDGYVCIQAQYHGAVPTGHILPSPLVLRPGPIYAEDGDRGINQPIIYSIFRGNVNGTFIIHPDSGNLTVARSVPSPMTFLLLVKGQQADLARYSVTQVTVEAVAAAGSPPRFPQRLYRGTVARGAGAGVVVKDAAAPSQPLRIQAQDPEFSDLNSAITYRITNHSHFRMEGEVVLTTTTLAQAGAFYAEVEAHNTVTSGTATTVIEIQVSEQEPPSTDVPPSPEAGGTTGPWTSTTSEVPRPPEPSQGPSTTSSGGGTGPHPPSGTTLRPPTSSTPGGPPGAENSTSHQPATPGGDTAQTPKPGTSQPMPPGVGTSTSHQPATPSGGTAQTPEPGTSQPMPPSMGTSTSHQPATPGGGTAQTPEAGTSQPMPPGMGTSTSHQPTTPGGGTAQTPEPGTSQPMPLSKSTPSSGGGPSEDKRFSVVDMAALGGVLGALLLLALLGLAVLVHKHYGPRLKCCCGKAPEPQPQGFDNQAFLPDHKANWAPVPSPTHDPKPAEAPMPAEPAPPGPASPGGAPEPPAAARAGGSPTAVRSILTKERRPEGGYKAVWFGEDIGTEADVVVLNAPTLDVDGASDSGSGDEGEGAGRGGGPYDAPGGDDSYI
partner: B1 partner
B3: Cadherin-related family member 5 (Homo sapiens), Q9HBB8-2 (parent)
chain: MGSWALLWPPLLFTGLLVRPPGTMAQAQYCSVNKDIFEVEENTNVTEPLVDIHVPEGQEVTLGALSTPFAFRIQGNQLFLNVTPDYEEKSLLEAQLLCQSGGTLVTQLRVFVSVLDVNDNAPEFPFKTKEIRVEEDTKVNSTVIPETQLQAEDRDKDDILFYTLQEMTAGASDYFSLVSVNRPALRLDRPLDFYERPNMTFWLLVRDTPGENVEPSHTATATLVLNVVPADLRPPWFLPCTFSDGYVCIQAQYHGAVPTGHILPSPLVLRPGPIYAEDGDRGINQPIIYSIFRGNVNGTFIIHPDSGNLTVARSVPSPMTFLLLVKGQQADLARYSVTQVTVEAVAAAGSPPRFPQRLYRGTVARGAGAGVVVKDAAAPSQPLRIQAQDPEFSDLNSAITYRITNHSHFRMEGEVVLTTTTLAQAGAFYAEVEAHNTVTSGTATTVIEIQVSEQEPPSTGGGPSEDKRFSVVDMAALGGVLGALLLLALLGLAVLVHKHYGPRLKCCCGKAPEPQPQGFDNQAFLPDHKANWAPVPSPTHDPKPAEAPMPAEPAPPGPASPGGAPEPPAAARAGGSPTAVRSILTKERRPEGGYKAVWFGEDIGTEADVVVLNAPTLDVDGASDSGSGDEGEGAGRGGGPYDAPGGDDSYI
partner: B1 chain

Variants of: B1
Conditions: with USH1C

effect of a mutation on the interaction	Variant
disrupting interaction strength	L1310R

Variants of: B2
Conditions: with USH1C

effect of a mutation on the interaction	Variant
disrupting interaction strength	I845R

Variants of: B3
Conditions: with cdhr2_human CDHR2, Q9BYE9

effect of a mutation on the interaction	Variant
disrupting interaction strength	R109G
